We go through 1 substance from publication PMC9861716.

For this experiment, the target named is His-Fc-G67 polypeptide. Put plainly: co-sedimentation; Herceptin on Herceptin-modified liposomes (Her-Lipo), evaluated semi-quantitatively by SDS-PAGE and silver staining; no data shown.

The substance Herceptin (trastuzumab) (antibody) showed an amount of Herceptin on Her-Lipo per 100 µg lipid (µg of Herceptin per 100 µg lipid) of 0.4.
